Data published in the supplement of paper PMC11246515.
± gives the standard deviation of the averaged measurements.

Assay: total protein half-life in vivo (active degradation + dilution); higher = more stable protein
[1] = wild type E. coli NCM3722, growth: P-lim chemostat, doubling time 6 h
[2] = E. coli NCM3722 delta-clpP delta-lon delta-hslV, growth: N-lim chemostat, doubling time 6 h
[3] = E. coli NCM3722 delta-clpP, growth: N-lim chemostat, doubling time 6 h
[4] = E. coli NCM3722 delta-hslV, growth: N-lim chemostat, doubling time 6 h
[5] = E. coli NCM3722 delta-lon, growth: N-lim chemostat, doubling time 6 h
[6] = E. coli NCM3722 delta-smpB, growth: N-lim chemostat, doubling time 6 h
[7] = wild type E. coli NCM3722, growth: C-lim chemostat, doubling time 3 h
[8] = wild type E. coli NCM3722, growth: C-lim chemostat, doubling time 6 h
[9] = wild type E. coli NCM3722, growth: C-lim chemostat, doubling time 12 h
[10] = wild type E. coli NCM3722, growth: N-lim chemostat, doubling time 6 h
[11] = wild type E. coli NCM3722, growth: N-lim chemostat, doubling time 12 h
[12] = wild type E. coli NCM3722, growth: P-lim chemostat, doubling time 12 h

Sequence	total protein half-life in vivo [1] [h]	total protein half-life in vivo [2] [h]	total protein half-life in vivo [3] [h]	total protein half-life in vivo [4] [h]	total protein half-life in vivo [5] [h]	total protein half-life in vivo [6] [h]	total protein half-life in vivo [7] [h]	total protein half-life in vivo [8] [h]	total protein half-life in vivo [9] [h]	total protein half-life in vivo [10] [h]	total protein half-life in vivo [11] [h]	total protein half-life in vivo [12] [h]
MLRHITFTVFITTSMNTLATGMVPETSVLLVDEKRGEASINIKNTDDHPSLLYTTIVDLPESNKSIRLIPTQPVIRVEAGQVQQVRFLLQATVPLQSEELKRVTFEGIPPKDDKSSRVTVSIRQDLPVLIHPASLPEERETWKFLEWRKNGDQIEISNPSNYVVRMTLQFKTLPSGKTGAINKTYFLPHTSTTTALTNATDTKVEFYPASRYGYRGNKYVTDLK	4.81											
MLRIAKEALTFDDVLLVPAHSTVLPNTADLSTQLTKTIRLNIPMLSAAMDTVTEARLAIALAQEGGIGFIHKNMSIERQAEEVRRVKKHESGVVTDPQTVLPTTTLREVKELTERNGFAGYPVVTEENELVGIITGRDVRFVTDLNQPVSVYMTPKERLVTVREGEAREVVLAKMHEKRVEKALVVDDEFHLIGMITVKDFQKAERKPNACKDEQGRLRVGAAVGAGAGNEERVDALVAAGVDVLLIDSSHGHSEGVLQRIRETRAKYPDLQIIGGNVATAAGARALAEAGCSAVKVGIGPGSICTTRIVTGVGVPQITAVADAVEALEGTGIPVIADGGIRFSGDIAKAIAAGASAVMVGSMLAGTEESPGEIELYQGRSYKSYRGMGSLGAMSKGSSDRYFQSDNAADKLVPEGIEGRVAYKGRLKEIIHQQMGGLRSCMGLTGCGTIDELRTKAEFVRISGAGIQESHVHDVTITKESPNYRLGS [P0ADG7]	6.02 ± 0.29	5.001 ± 0.0064	3.78 ± 0.047	4.06 ± 0.047	4.91 ± 0.38	3.95 ± 0.36	3.01 ± 0.44	5.76 ± 0.073	11.2 ± 1.9	4.29 ± 0.39	6.68 ± 0.18	12.5 ± 0.63
MLSAFQLENNRLTRLEVEESQPLVNAVWIDLVEPDDDERLRVQSELGQSLATRPELEDIEASARFFEDDDGLHIHSFFFFEDAEDHAGNSTVAFTIRDGRLFTLRERELPAFRLYRMRARSQSMVDGNAYELLLDLFETKIEQLADEIENIYSDLEQLSRVIMEGHQGDEYDEALSTLAELEDIGWKVRLCLMDTQRALNFLVRKARLPGGQLEQAREILRDIESLLPHNESLFQKVNFLMQAAMGFINIEQNRIIKIFSVVSVVFLPPTLVASSYGMNFEFMPELKWSFGYPGAIIFMILAGLAPYLYFKRKNWL [P0ABI4]	5.62 ± 0.18	5.99 ± 0.074	6.305 ± 0.044	5.99 ± 0.58		6.4 ± 0.16	3 ± 0.35	6.15 ± 0.071	11.8 ± 0.14	6.07 ± 0.69	11.7 ± 2	12.6 ± 0.23
MLSFLWDLASFIVALGVLITVHEFGHFWVARRCGVRVERFSIGFGKALWRRTDKLGTEYVIALIPLGGYVKMLDERAEPVVPELRHHAFNNKSVGQRAAIIAAGPVANFIFAIFAYWLVFIIGVPGVRPVVGEIAANSIAAEAQIAPGTELKAVDGIETPDWDAVRLQLVDKIGDESTTITVAPFGSDQRRDVKLDLRHWAFEPDKEDPVSSLGIRPRGPQIEPVLENVQPNSAASKAGLQAGDRIVKVDGQPLTQWVTFVMLVRDNPGKSLALEIERQGSPLSLTLIPESKPGNGKAIGFVGIEPKVIPLPDEYKVVRQYGPFNAIVEATDKTWQLMKLTVSMLGKLITGDVKLNNLSGPISIAKGAGMTAELGVVYYLPFLALISVNLGIINLFPLPVLDGGHLLFLAIEKIKGGPVSERVQDFCYRIGSILLVLLMGLALFNDFSRL [P0AEH1]	4.17 ± 0.6	5.38 ± 0.54	4.76 ± 0.25	4.25 ± 0.049	5.088 ± 0.044	4.624 ± 0.034	2.69 ± 0.22	4.23 ± 0.79	7.59 ± 0.17	4.2 ± 0.15	7.28 ± 0.63	6.21 ± 0.8
MLSGKDLGRAIEQAINKKIASGSVKSKAEVARHFKVQPPSIYDWIKKGSISKDKLPELWRFFSDVVGPEHWGLNEYPIPTPTNSDTKSELLDINNLYQAASDEIRAIVAFLLSGNATEPDWVDHDVRAYIAAMEMKVGKYLKALESERKSQNITKTGT	5.35		4.75	5.53 ± 0.81	7.1	5.32		5.48	9.89	4.71	8.69	10.4 ± 2
MLSIFKPAPHKARLPAAEIDPTYRRLRWQIFLGIFFGYAAYYLVRKNFALAMPYLVEQGFSRGDLGFALSGISIAYGFSKFIMGSVSDRSNPRVFLPAGLILAAAVMLFMGFVPWATSSIAVMFVLLFLCGWFQGMGWPPCGRTMVHWWSQKERGGIVSVWNCAHNVGGGIPPLLFLLGMAWFNDWHAALYMPAFCAILVALFAFAMMRDTPQSCGLPPIEEYKNDYPDDYNEKAEQELTAKQIFMQYVLPNKLLWYIAIANVFVYLLRYGILDWSPTYLKEVKHFALDKSSWAYFLYEYAGIPGTLLCGWMSDKVFRGNRGATGVFFMTLVTIATIVYWMNPAGNPTVDMICMIVIGFLIYGPVMLIGLHALELAPKKAAGTAAGFTGLFGYLGGSVAASAIVGYTVDFFGWDGGFMVMIGGSILAVILLIVVMIGEKRRHEQLLQERNGG								6.02 ± 0.41	11.8 ± 1.2			
MLSLYEKIKIRLIILFLLAALSFIGLFFIINYQLVSERAVKRADSRFELIQKNVGYFFKDIERSALTLKDSLYLLKNTEEIQRAVILKMEMMPFLDSVGLVLDDNKYYLFSRRANDKIVVYHQEQVNGPLVDESGRVIFADFNPSKRPWSVASDDSNNSWNPAYNCFDRPGKKCISFTLHINGKDHDLLAVDKIHVDLNWRYLNEYLDQISANDEVLFLKQGHEIIAKNQLAREKLIIYNSEGNYNIIDSVDTEYIEKTSAVPNNALFEIYFYYPGGNLLNASDKLFYLPFAFIIIVLLVVYLMTTRVFRRQFSEMTELVNTLAFLPDSTDQIEALKIREGDAKEIISIKNSIAEMKDAEIERSNKLLSLISYDQESGFIKNMAIIESNNNQYLAVGIIKLCGLEAVEAVFGVDERNKIVRKLCQRIAEKYAQCCDIVTFNADLYLLLCRENVQTFTRKIAMVNDFDSSFGYRNLRIHKSAICEPLQGENAWSYAEKLKLAISSIRDHMFSEFIFCDDAKLNEIEENIWIARNIRHAMEIGELFLVYQPIVDINTRAILGAEALCRWVSAERGIISPLKFITIAEDIGFINELGYQIIKTAMGEFRHFSQRASLKDDFLLHINVSPWQLNEPHFHERFTTIMKENGLKANSLCVEITETVIERINEHFYLNIEQLRKQGVRISIDDFGTGLSNLKRFYEINPDSIKVDSQFTGDIFGTAGKIVRIIFDLARYNRIPVIAEGVESEDVARELIKLGCVQAQGYLYQKPMPFSAWDKSGKLVKE	6.03 ± 0.13	5.7 ± 1.7	7.04 ± 0.45		6.67 ± 0.23	6.334 ± 0.039	3 ± 0.23	5.9 ± 0.19		5.88 ± 0.38	12.8 ± 1.2	11.8 ± 1
